The values that follow come from patent US9486519B2, “Use of FLT3 ligand for enhancing immune responses in RNA immunization” (BioNTech AG, priority 2008, dated 2016).

Entries after “also recorded” stand apart in the source; their conditions may differ.

For data set [1], the system named is lymph nodes and spleen. Briefly: Cellularity of lymph nodes and spleen after i.p. Flt3-L. As to conditions: 2x, 3x, 5x 10 μg i.p.; 10-12 days after the first injection. The class given is in vivo, C57Bl/6 mice. How it is done:
C57Bl/6 mice (n=3-9) were administered 10 μg Flt3L intraperitoneally at different timepoints (d1 to d3 or d1, d1, d3 or d0, d3). On day 10 the lymph nodes (LN) and the spleen were removed and the cell count was determined. The data shown represent the average cell count +SEM of the lymph nodes. *: p<0.05 in Tukey's multiple comparison test.
To test the effects of application of human Flt3 ligand on the efficiency of RNA-based immunizations, the changes in the cellular composition of lymph nodes and spleen were first investigated in the mouse model. For this, various application schemes (2×, 3×, 5×10 μg) of recombinant Flt3-L were applied intraperitoneally and the cellularity was determined 10-12 days after the first injection. […] This increase could be shown for all relevant subpopulations of the dendritic cells in spleen and lymph nodes (FIG. 2).

The subject of data set [2] is RNA uptake in the lymph nodes. Briefly: Effect of Flt3-L on RNA uptake in lymph nodes, in-vivo bioluminescence. Details: species or system C57BL/6 mice. As to conditions: 10 μg i.p. day 0 and 3; 20 μg luciferase-RNA intranodally day 10. The method, then: (f) Effect of Flt3-L on RNA uptake. C57BL/6 mice (n=8) were treated i.p. on day 0 and 3 with 10 μg, Flt3-L, or were not treated in the control group. On day 10 the mice were injected intranodally with 20 μg luciferase-RNA. 24 h later the luciferase signal was measured by in-vivo bioluminescence.
C57BL/6 mice (n=8) were treated i.p. on day 0 and 3 with 10 μg Flt3-L or were not treated in the control group. On day 10 the mice were injected intranodally with 20 μg luciferase-RNA. 24 h later the luciferase signal was measured by in-vivo bioluminescence. […] The bars give the mean value of all measured values for a group. The experiment is representative for 3 independent experiments. Statistics: Student's t-test.

For data set [3], the system named is cell populations of the murine lymph node. Briefly: Effects of different Flt3L on the cellular composition in lymph nodes. The class given is in vivo, C57BL/6 mice. As to conditions: 0.4 mol i.p. day 0; lymph nodes day 10. From the text:
On day 10 the lymph nodes of the mice were removed and characterized by flow cytometry. Dendritic cells (DCs (marker: CD11c^+/NK1.1^−)), CD4^+ helper T cells (marker: CD3^+/CD4^+/CD8^−/NK1.1^−), CD8^+ T cells (marker: CD3^+/CD8^+/CD4^−/NK1.1^−), CD19^+ B cells (marker: CD19^+/CD3^−/NK1.1^−).
In this experiment Flt3 ligand (Flt3-IgG4) was compared with commercially available Flt3 preparations with respect to the effect on different cell populations of the murine lymph node. A product recombinantly expressed in bacteria (Peprotech Flt3L; Peprotech, Hamburg, Germany) and a product expressed in human HEK293 cells (Humanzyme Flt3L, Humanzyme; Chicago Ill., U.S.A.) were used as commercially available Flt3 preparations. Human IgG4 (Sigma-Aldrich, Deisenhofen, Germany) served as control.
On day 10 both inguinal lymph nodes of the mice were removed, the cell count determined by means of a Neubauer chamber and the cell populations were characterized by flow cytometry.

Data set [4] has as its system antigen-specific CD8+ T lymphocytes. Briefly: Effects of different Flt3L on the stimulation of naive T cells, MHC multimer measurement in peripheral blood. It is filed as in vivo, C57BL/6 mice. The following applies: 0.4 mol i.p. day 0, +3; 20 μg SIINFEKL coding RNA day +7, +10; blood day +15. How it is done:
These mice were immunized intralymphatically on day +7, +10 with 20 μg […] coding RNA. The control group remained untreated (n=2). On day +15 the frequency of antigen-specific CD8^+ T lymphocytes was measured in peripheral blood by means of MHC multimer measurement.
To this end a product recombinantly expressed in bacteria (Peprotech Flt3L) and a product expressed in human HEK293 cells (Humanzyme Flt3L) was used; cf. Example 7. Human IgG4 served as control.
These mice were immunized intralymphatically on day +7, +10 with 20 μg […] coding RNA. The control group remained untreated (n=2). On day +15 the frequency of antigen-specific CD8^+ T lymphocytes was measured by flow cytometry in peripheral blood by means of MHC multimer measurement (Beckman Coulter).
The mice were administered intraperitoneally Flt3L in equimolar amounts (day 0, +3). In addition, mice were immunized intranodally twice with […] coding RNA (+7, +10). The success of the immunization was quantified by flow cytometry on day +15 by means of tetramer staining.

A short description of data set [5]: Half-time of Flt3L-IgG4 in serum, human IgG ELISA. It is filed as in vivo, Balb/c mice. How it is done: At defined time points (prior to administration; 3 h, 24 h, 48 h, 3 d, 5 d, 7 d, 9 d, 14 d, 21 d) serum samples of the mice were preserved. These samples were used in an ELISA assay for quantifying human IgG. The half-time is 2.14 days (=51 hours).
At defined time points (prior to administration; 3 h, 24 h, 48 h, 3 d, 5 d, 7 d, 9 d, 14 d, 21 d) serum samples of the mice were preserved. These samples were used in an ELISA assay for quantifying human IgG. The half-time is 1,667 days (=40 hours).
Serum samples obtained from the mice were preserved at defined time points (prior to administration; 3 h, 24 h, 48 h, 3 d, 5 d, 7 d, 9 d, 14 d, 21d). Human IgG was quantified in these samples by means of an ELISA assay. Due to the fusion of human IgG4 to FIt3L in this construct the Flt3L concentration can be determined by quantifying human IgG in serum of mice.
In general terms: An ELISA detects its analyte on a solid surface through an enzyme-linked reagent.

Data set [6] deals with B16 Ova tumors. Briefly: Therapeutic vaccination against B16 Ova tumors, survival. It is filed as in vivo, C57BL/6 mice. How it is done: To examine the synergy of combining Flt3L administration with RNA vaccination, a therapeutic tumor experiment was performed. To this end, 4 groups (n=10) of C57BL/6 mice were formed. All mice received on day 0 a s.c. injection of B16 Ova cells (2×10^5). Hereof a control group was only treated by IgG4 injection (10 μg; d3, d7, d14, d17). […] The Kaplan Meier plot of the survival rate of mice is shown.
To investigate the synergy of the combination of Flt3L administration together with RNA vaccination a therapeutic tumor experiment was performed. To this end four groups (n=10) of C57BL/6 mice were formed. All mice received on day 0 a s.c. injection of 2×10^5 B16 Ova tumor cells (Bellone et al., J. Immunol., 2000, 165:2651-2656). Thereof a control group was only treated by IgG4 injection (10 μg; d3, d7, d14, d17).

B1: Flt3L-IgG4: recombinant human Flt3 ligand prepared as a fusion protein with IgG4, SEQ ID NO: 6, expressed in HEK293 cells (protein)
chain: MTVLAPAWSPTTYLLLLLLLSSGLSGTQDCSFQHSPISSDFAVKIRELSDYLLQDYPVTVASNLQDEELCGGLWRLVLAQRWMERLKTVAGSKMQGLLERVNTEIHFVTKCAFQPPPSCLRFVQTNISRLLQETSEQLVALKPWITRQNFSRCLELQCQPDSSTLPPPWSPRPLEATAPTAPQPPRSPPCPSCPAPEFLGGPSVFLFPPKPKDTLMISRTPEVTCVVVDVSQEDPEVQFNWYVDGVEVHNAKTKPREEQFNSTYRVVSVLTVLHQDWLNGKEYKCKVSNKGLPSSIEKTISKAKGQPREPQVYTLPPSQEEMTKNQVSLTCLVKGFYPSDIAVEWESNGQPENNYKTTPPVLDSDGSFFLYSRLTVDKSRWQEGNVFSCSVMHEALHNHYTQKSLSLSPGK
modifications: Fusionsprotein
Regarding B1, in data set [1], the “cellularity in spleen and lymph nodes” value is “increase in cellularity in spleen and lymph nodes”. The “RNA uptake in the lymph nodes (in-vivo bioluminescence)” value in data set [2] is “does not have an inhibitory effect”. Moreover, in data set [3], the “expansion of dendritic cells” value is given as “strong similarity” and the “expansion of the lymphocyte populations” value is on record as “tended to be strongest”. For the same molecule, in data set [4], the “adjuvant effect (frequency of antigen-specific CD8+ T lymphocytes)” value is “significant adjuvant effect; also recorded: strongest effect”. The “detectable in serum after injection” value in data set [5] (20 μg and 50 μg i.p.) is “up to 5 days”. In data set [5] (20 μg i.p.), this molecule gave a half-life in serum of 51 h and a half-time in serum of 2.14 days. In data set [5] (50 μg i.p.), this molecule had a half-life in serum of 40 h. The “stability compared to Flt3L without IgG4 fusion” value in data set [5] (from serum half-life) was “increased stability”. Also, the “portion of mice surviving in the long term” value in data set [6] (Flt3L-IgG4 15 μg in combination with intranodal RNA vaccination 20 μg) was “about 80%”. In addition, the “survival in the long term” value in data set [6] (Flt3L-IgG4 15 μg without RNA vaccination) amounted to 10%. The “therapeutic effect on tumor growth” value in data set [6] (Flt3L-IgG4 without RNA vaccination) was “minimal therapeutic effect on tumor growth”. Further, the “effect of the combination with intranodal vaccination of RNA” value in data set [6] (survival) is listed as “synergistic effect”.
